The assay has as its target T1, CEACAM5 (R&D Systems, 4128-CM-050) (human, UniProt P06731 35-685).
T1 construct: Immobilised on the ELISA plate; also called human CEACAM5
T1 sequence (looked up): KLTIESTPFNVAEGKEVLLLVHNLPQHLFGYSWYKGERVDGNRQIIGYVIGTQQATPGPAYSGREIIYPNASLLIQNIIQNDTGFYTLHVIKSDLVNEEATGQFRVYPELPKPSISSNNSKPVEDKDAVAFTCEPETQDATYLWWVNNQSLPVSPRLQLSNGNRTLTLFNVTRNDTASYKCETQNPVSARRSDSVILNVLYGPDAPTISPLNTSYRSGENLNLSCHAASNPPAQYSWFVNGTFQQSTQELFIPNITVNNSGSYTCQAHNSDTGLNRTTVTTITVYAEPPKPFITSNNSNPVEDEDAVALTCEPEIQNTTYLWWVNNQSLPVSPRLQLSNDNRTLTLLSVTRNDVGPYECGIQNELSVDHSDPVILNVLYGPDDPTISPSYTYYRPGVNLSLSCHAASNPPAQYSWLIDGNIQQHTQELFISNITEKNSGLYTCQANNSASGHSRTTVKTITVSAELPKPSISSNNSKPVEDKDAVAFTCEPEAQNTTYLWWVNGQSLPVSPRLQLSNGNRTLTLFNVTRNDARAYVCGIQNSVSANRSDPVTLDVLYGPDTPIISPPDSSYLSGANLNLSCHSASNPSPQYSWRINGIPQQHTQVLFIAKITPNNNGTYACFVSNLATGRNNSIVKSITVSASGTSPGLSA
Description: ELISA on immobilised CEACAM5, 4-parameter fit, duplicate. As for the experimental part:
Each anti-human CEACAM5 antibody Fab fragment conjugate prepared in Example 2 was subjected to ELISA to evaluate the binding activity thereof to CEACAM5. In the present test, a phosphate buffer (Nacalai Tesque Inc., 0.1 mol/L-Phosphate Buffer Solution (pH 7.2)) prepared to 10 mM by diluting 10-fold with distilled water was used as a solvent for an antigen immobilization liquid, and 20×PBS/Tween 20 Buffer (Thermo Fisher Scientific Inc., 28352) diluted 20-fold with distilled water was used as a wash liquid. In addition, for bovine serum albumin (BSA) used in the present test, 30% Bovine Serum Albumin solution (Sigma-Aldrich, Inc., A9576-50ML) was added in an appropriate proportion for use. CEACAM5 (R&D Systems, 4128-CM-050) was diluted with a 10 mM phosphate buffer (pH 7.2) to 0.1 μg/mL, and added to a Nunc MaxiSorp White 384 plate (Nunc, 4603272) at 30 μL per well, and the plate was incubated overnight at 4° C. for immobilization. The CEACAM5 immobilization liquid was removed by reverse centrifugation, and then blocking was carried out by adding a PBS/Tween 20 buffer containing 5.0% BSA. Thereafter, the blocking solution was removed by reverse centrifugation, a solution of each CEACAM5 antibody Fab² fragment conjugate described above or a Fab² fragment having no labeling portion (PB009-01) as a control at about 10000 ng/mL was diluted in 14 steps by 3-fold dilution using a PBS/Tween 20 buffer containing 1.0% BSA, and 30 μL was added per well and incubated at room temperature for 60 minutes. The plate was washed 3 times with a PBS/Tween 20 buffer, and Horseradish Peroxidase (HRP)-labeled goat anti-human IgG (H+L chain) antibody (MBL Life Sciences, 206) diluted 1000-fold using a PBS/Tween 20 buffer containing 5.0% BSA was added at 30 μL per well and incubated at room temperature for 30 minutes. The plate was washed 3 times with a PBS/Tween 20 buffer, and ECL Prime Western Blotting DETECTION Reagent (GE Healthcare, RPN2232) as a substrate was added at 30 μL per well. The substrate was incubated at room temperature for 15 minutes, and then a signal value thereof was measured using an Envision counter (PerkinElmer, Inc.).
The test for each antibody was carried out in duplicate, and an EC₅₀ value was calculated using a 4-parameter logistic curve model.
(An ELISA detects its analyte on a solid surface through an enzyme-linked reagent.)

B1: (Y-S1-X)p-Fab^2 with Y Gd/DOTA, S1 -NH-(CH2)2-C(═O)-, X -Gly-Lys*-Z2(#N)- (Fab, V domains shown)
VH: EVQLVESGGGLVQPGGSLRLSCAASGFNIRDTYMHWVRQAPGKGLEWVARIDPANGNSRYVPKFQGRFTISADTSRNTAYLQMNSLRAEDTAVYYCAPFGYYVSDYAMAYWGQGTLVTVSS
VL: DIQLTQSPSSLSASVGDRVTITCRAGESVDIFGVGFLHWYQQKPGKAPKLLIYRASNLESGIPSRFSGSGSRTDFTLTISSLQPEDFATYYCQQTNEDPYTFGQGTKVEIKR
modifications: labeling may sit on this chain; sites not stated; labeling portion (MW 896) on amino groups of the Fab, sites and chain not stated; 1-3 per Fab by MS
notes: also called Ex-No 22; conjugate 22
For the molecule B1, a half-maximal effect (EC50) was put at 0.32 nM. That is a sub-nanomolar value.

B2: [Gd/DOTA-NH-(CH2CH2O)3-CH2-C(═O)-NH-CH2-(1,3-Ph)-C(═O)-Met-Gly-Lys*-Z2(#N)]p-Fab^2 (Fab, V domains shown)
VH: EVQLVESGGGLVQPGGSLRLSCAASGFNIRDTYMHWVRQAPGKGLEWVARIDPANGNSRYVPKFQGRFTISADTSRNTAYLQMNSLRAEDTAVYYCAPFGYYVSDYAMAYWGQGTLVTVSS
VL: DIQLTQSPSSLSASVGDRVTITCRAGESVDIFGVGFLHWYQQKPGKAPKLLIYRASNLESGIPSRFSGSGSRTDFTLTISSLQPEDFATYYCQQTNEDPYTFGQGTKVEIKR
modifications: labeling may sit on this chain; sites not stated; labeling portion (MW 1278) on amino groups of the Fab, sites and chain not stated; 1-2 per Fab by MS
notes: also called Ex-No 29; Conjugate No. 29
B2: the EC50 (in general, the concentration at which the effect is half-maximal) worked out at 0.3 nM. This EC50 and that of the molecule before are within 1.5-fold of each other.

B3: (Y-S1-X)p-Fab^2 with Y Gd/DOTA, S1 spacer (a), X -Gly-Lys*-Z2(#N)- (Fab, V domains shown)
VH: EVQLVESGGGLVQPGGSLRLSCAASGFNIRDTYMHWVRQAPGKGLEWVARIDPANGNSRYVPKFQGRFTISADTSRNTAYLQMNSLRAEDTAVYYCAPFGYYVSDYAMAYWGQGTLVTVSS
VL: DIQLTQSPSSLSASVGDRVTITCRAGESVDIFGVGFLHWYQQKPGKAPKLLIYRASNLESGIPSRFSGSGSRTDFTLTISSLQPEDFATYYCQQTNEDPYTFGQGTKVEIKR
modifications: labeling may sit on this chain; sites not stated; labeling portion (MW 936) on amino groups of the Fab, sites and chain not stated; 1-3 per Fab by MS
notes: also called Ex-No 23; conjugate 23
On to B3, for which it took 0.33 nM to reach a half-maximal effect (EC50).

B4: [Gd/DOTA-NH-(CH2CH2O)3-CH2-C(═O)-NH-CH2-(1,3-Ph)-C(═O)-Met-Gly-Lys*-Z2(#S)]p-Fab^2 (Fab, V domains shown)
VH: EVQLVESGGGLVQPGGSLRLSCAASGFNIRDTYMHWVRQAPGKGLEWVARIDPANGNSRYVPKFQGRFTISADTSRNTAYLQMNSLRAEDTAVYYCAPFGYYVSDYAMAYWGQGTLVTVSS
VL: DIQLTQSPSSLSASVGDRVTITCRAGESVDIFGVGFLHWYQQKPGKAPKLLIYRASNLESGIPSRFSGSGSRTDFTLTISSLQPEDFATYYCQQTNEDPYTFGQGTKVEIKR
modifications: labeling may sit on this chain; sites not stated; labeling portion (MW 1380) bound via 2-iminothiolane-treated amino groups of the Fab, sites and chain not stated; 1 per Fab by MS
notes: also called Ex-No 35; Conjugate No. 35
In turn, B4 yielded an EC50 of 0.43 nM.

B5: (Y-S1-X)p-Fab^2 with Y Gd/DOTA, S1 - (bond), X -Gly-(naph-Ala)-Lys*-Z2(#S)- (Fab, V domains shown)
VH: EVQLVESGGGLVQPGGSLRLSCAASGFNIRDTYMHWVRQAPGKGLEWVARIDPANGNSRYVPKFQGRFTISADTSRNTAYLQMNSLRAEDTAVYYCAPFGYYVSDYAMAYWGQGTLVTVSS
VL: DIQLTQSPSSLSASVGDRVTITCRAGESVDIFGVGFLHWYQQKPGKAPKLLIYRASNLESGIPSRFSGSGSRTDFTLTISSLQPEDFATYYCQQTNEDPYTFGQGTKVEIKR
modifications: labeling may sit on this chain; sites not stated; labeling portion (MW 1123) on amino groups of the Fab, sites and chain not stated; 1-2 per Fab by MS
notes: also called Ex-No 31; conjugate 31
B5 had an EC50 of 0.3 nM.

B6: (Y-S1-X)p-Fab^2 with Y Gd/DOTA, S1 spacer (b), X -Gly-Lys*-Z2(#N)- (Fab, V domains shown)
VH: EVQLVESGGGLVQPGGSLRLSCAASGFNIRDTYMHWVRQAPGKGLEWVARIDPANGNSRYVPKFQGRFTISADTSRNTAYLQMNSLRAEDTAVYYCAPFGYYVSDYAMAYWGQGTLVTVSS
VL: DIQLTQSPSSLSASVGDRVTITCRAGESVDIFGVGFLHWYQQKPGKAPKLLIYRASNLESGIPSRFSGSGSRTDFTLTISSLQPEDFATYYCQQTNEDPYTFGQGTKVEIKR
modifications: labeling may sit on this chain; sites not stated; labeling portion (MW 950) on amino groups of the Fab, sites and chain not stated; 1-3 per Fab by MS
notes: also called Ex-No 27; conjugate 27
Molecule B6 came in with an EC50 of 0.46 nM.

B7: (Y-S1-X)p-Fab^2 with Y Gd/DOTA, S1 spacer (c), X -Gly-Lys*-Z2(#N)- (Fab, V domains shown)
VH: EVQLVESGGGLVQPGGSLRLSCAASGFNIRDTYMHWVRQAPGKGLEWVARIDPANGNSRYVPKFQGRFTISADTSRNTAYLQMNSLRAEDTAVYYCAPFGYYVSDYAMAYWGQGTLVTVSS
VL: DIQLTQSPSSLSASVGDRVTITCRAGESVDIFGVGFLHWYQQKPGKAPKLLIYRASNLESGIPSRFSGSGSRTDFTLTISSLQPEDFATYYCQQTNEDPYTFGQGTKVEIKR
modifications: labeling may sit on this chain; sites not stated; labeling portion (MW 908) on amino groups of the Fab, sites and chain not stated; 1-3 per Fab by MS
notes: also called Ex-No 28; conjugate 28
The molecule B7 gave an EC50 of 0.36 nM. The EC50 values of the last two molecules are within 1.5-fold of each other.

These data come from patent US20220096653A1, “CONJUGATE COMPRISING LIGAND AND CEACAM5 ANTIBODY FAB FRAGMENT” (ASTELLAS PHARMA INC., priority 2019, published 2022).
